Here are results for four molecules from patent US20260167721A1 (ABLEXIS, published 2026).

Assay [1] has as its target T1, human CD3 (TCR/CD3 complex on the cell surface) (human, UniProt P07766 23-207; P04234 22-171; P09693 23-182).
T1 construct: whole, on cells; Native CD3 on human Pan-T cells or Jurkat wild-type cells; also called CD3 on Pan-T cells; CD3 on Jurkat WT cells
The experiment in a line: flow cytometry, Pan-T cells, 1 ug/mL.

Assay [2] has as its target T1, human CD3 (TCR/CD3 complex on the cell …). Put plainly: flow cytometry, Pan-T cells, 10 ug/mL.
Assay [3] has the same target. The experiment in a line: flow cytometry, Jurkat WT cells, 1 ug/mL.
Assay [4] shares this target. The experiment in a line: flow cytometry, Jurkat WT cells, 10 ug/mL. A general note: Flow cytometry measures light scatter and fluorescence of single cells or particles in a stream.
The target is the same in assay [5]. The experiment in a line: flow cytometry, Jurkat WT gMFI over Jurkat KO gMFI, 1 ug/mL.
Assay [6] has the same target. The experiment in a line: flow cytometry, Jurkat WT gMFI over Jurkat KO gMFI, 10 ug/mL.
The next assay addresses recombinant CD3 proteins. Put plainly: Octet (BLI), bispecific antibody against recombinant CD3 proteins. (In BLI a coated tip is dipped into the sample, and binding shifts an interference pattern.)

T1 sequence (P07766 23-207, chain 1 of 3): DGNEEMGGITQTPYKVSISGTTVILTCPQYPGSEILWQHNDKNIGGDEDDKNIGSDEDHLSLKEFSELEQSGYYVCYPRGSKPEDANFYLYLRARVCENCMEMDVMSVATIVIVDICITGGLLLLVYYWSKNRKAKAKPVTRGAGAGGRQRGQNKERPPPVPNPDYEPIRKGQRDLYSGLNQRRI
T1 sequence (P04234 22-171, chain 2 of 3): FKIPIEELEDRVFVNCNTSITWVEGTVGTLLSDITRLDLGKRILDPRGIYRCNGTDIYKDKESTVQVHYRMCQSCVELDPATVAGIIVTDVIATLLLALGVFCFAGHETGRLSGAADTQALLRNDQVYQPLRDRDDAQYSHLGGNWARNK
T1 sequence (P09693 23-182, chain 3 of 3): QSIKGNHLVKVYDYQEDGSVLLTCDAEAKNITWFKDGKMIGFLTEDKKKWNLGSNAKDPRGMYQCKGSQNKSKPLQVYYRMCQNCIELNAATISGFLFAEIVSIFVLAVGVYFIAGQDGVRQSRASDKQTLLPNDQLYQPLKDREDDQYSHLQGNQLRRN

B1: CD3 × CD33-BspAb72 (bispecific antibody)
chain 1: EVQLVESGGGLVQPGGSLRLSCAASGFTFSSYSMNWVRQAPGKCLEWVSYISSSSSTIYYADSVKGRFTISRDNAKNSLYLQMNSLRDEDTAVYYCARDGPVDYGMDVWGQGTTVTVSSGGGGSGGGGSGGGGSGGGGSSYELTQPPSVSVSPGQTARITCSGDALPKQYTYWYQQKPGQAPVLVIYKDSERPSGIPERFSGSSSGTTVTLTISGVQAEDEADYYCQSADSSGTYRVFGCGTKLTVLDKTHTCPPCPAPEFEGGPSVFLFPPKPKDTLMISRTPEVTCVVVDVSHEDPEVKFNWYVDGVEVHNAKTKPREEQYNSTYRVVSVLTVLHQDWLNGKEYKCKVSNKALPASIEKTISKAKGQPREPQVYTLPPCREEMTKNQVSLWCLVKGFYPSDIAVEWESNGQPENNYKTTPPVLDSDGSFFLYSKLTVDKSRWQQGNVFSCSVMHEALHNHYTQKSLSLSPGK
chain 2: EVQLVQSGAEVKKPGSSVKVSCKASGYTITDSNIHWVRQAPGQSLEWIGYIYPYNGGTDYNQKFKNRATLTVDNPTNTAYMELSSLRSEDTAFYYCVNGNPWLAYWGQGTLVTVSSASTKGPSVFPLAPSSKSTSGGTAALGCLVKDYFPEPVTVSWNSGALTSGVHTFPAVLQSSGLYSLSSVVTVPSSSLGTQTYICNVNHKPSNTKVDKRVEPKSCDKTHTCPPCPAPEFEGGPSVFLFPPKPKDTLMISRTPEVTCVVVDVSHEDPEVKFNWYVDGVEVHNAKTKPREEQYNSTYRVVSVLTVLHQDWLNGKEYKCKVSNKALPASIEKTISKAKGQPREPQVCTLPPSREEMTKNQVSLSCAVKGFYPSDIAVEWESNGQPENNYKTTPPVLDSDGSFFLVSKLTVDKSRWQQGNVFSCSVMHEALHNRFTQKSLSLSPGK
chain 3: DIQLTQSPSTLSASVGDRVTITCRASESLDNYGIRFLTWFQQKPGKAPKLLMYAASNQGSGVPSRFSGSGSGTEFTLTISSLQPDDFATYYCQQTKEVPWSFGQGTKVEVKRTVAAPSVFIFPPSDEQLKSGTASVVCLLNNFYPREAKVQWKVDNALQSGNSQESVTEQDSKDSTYSLSSTLTLSKADYEKHKVYACEVTHQGLSSPVTKSFNRGEC
Take B1: the “% Positive” value in assay [1] was found to be 2%; in assay [2], 66.1%. For the same molecule, the gMFI in assay [1] amounted to 2430 gMFI; in assay [2], 8340 gMFI; in assay [3] it was 1950 gMFI; in assay [4], 3760 gMFI. Also, the results for the “Jurkat WT/KO (Fold)” value in assay [5] and in assay [6] were 1 fold and 2 fold, respectively.

B2: CD3 × CD33-BspAb73 (bispecific antibody)
scFv-Fc: EVQLVESGGGLVKPGGSLRLSCAASGFTFSSYSMNWVRQAPGKCLEWVSSVNSRGSYIYYADSVKGRFTISRDNAKDSLYLQMNSLRADDTAVYYCARDRRELLLDYWGQGTLVTVSSGGGGSGGGGSGGGGSGGGGSSYELTQPPSVSVSPGQTARITCSGDALPKKYAYWYQQKSGQAPVLVIYEDSKRPSGIPERFSGSSSGTMATLTISGAQVEDEADYYCYSTDSSGNHSWVFGCGTKLTVLGGGGSDKTHTCPPCPAPEFEGGPSVFLFPPKPKDTLMISRTPEVTCVVVDVSHEDPEVKFNWYVDGVEVHNAKTKPREEQYNSTYRVVSVLTVLHQDWLNGKEYKCKVSNKALPASIEKTISKAKGQPREPQVYTLPPCREEMTKNQVSLWCLVKGFYPSDIAVEWESNGQPENNYKTTPPVLDSDGSFFLYSKLTVDKSRWQQGNVFSCSVMHEALHNHYTQKSLSLSPGK
heavy: EVQLVQSGAEVKKPGSSVKVSCKASGYTITDSNIHWVRQAPGQSLEWIGYIYPYNGGTDYNQKFKNRATLTVDNPTNTAYMELSSLRSEDTAFYYCVNGNPWLAYWGQGTLVTVSSASTKGPSVFPLAPSSKSTSGGTAALGCLVKDYFPEPVTVSWNSGALTSGVHTFPAVLQSSGLYSLSSVVTVPSSSLGTQTYICNVNHKPSNTKVDKRVEPKSCDKTHTCPPCPAPEFEGGPSVFLFPPKPKDTLMISRTPEVTCVVVDVSHEDPEVKFNWYVDGVEVHNAKTKPREEQYNSTYRVVSVLTVLHQDWLNGKEYKCKVSNKALPASIEKTISKAKGQPREPQVCTLPPSREEMTKNQVSLSCAVKGFYPSDIAVEWESNGQPENNYKTTPPVLDSDGSFFLVSKLTVDKSRWQQGNVFSCSVMHEALHNRFTQKSLSLSPGK
light: DIQLTQSPSTLSASVGDRVTITCRASESLDNYGIRFLTWFQQKPGKAPKLLMYAASNQGSGVPSRFSGSGSGTEFTLTISSLQPDDFATYYCQQTKEVPWSFGQGTKVEVKRTVAAPSVFIFPPSDEQLKSGTASVVCLLNNFYPREAKVQWKVDNALQSGNSQESVTEQDSKDSTYSLSSTLTLSKADYEKHKVYACEVTHQGLSSPVTKSFNRGEC
notes: KiH heterodimer
B2: the “% Positive” value in assay [1] is 17.3%; in assay [2] it was 95.9%. In addition, the gMFI in assay [1] came to 4180 gMFI; in assay [2] it was 22000 gMFI; in assay [3] it was 2510 gMFI; in assay [4] it was 6110 gMFI. Also, the “Jurkat WT/KO (Fold)” value in assay [5] was 1.2 fold; in assay [6] it was 3 fold.

B3: CD3 × CD33-BspAb75 (bispecific antibody)
scFv-Fc: EVQLVESGGGLVKPGGSLRLSCAASGFTFSSYSMNWVRQAPGKCLEWVSSISRRSGYIYYADSVKGRFTLSRDNAKKSLYLQMNSLRAEDTAVYYCARDLNWAFDYWGQGTLVTVSSGGGGSGGGGSGGGGSGGGGSNFMLTQPHSVSESPGKTVTISCTRSSGSIASNYVQWYQQRPGSSPTTVIYEDNHRPSGVPDRFSGSIDSSSNSASLTIAGLKTEDEADYYCQSYDSSNVVFGCGTKLTVLGGGGSDKTHTCPPCPAPEFEGGPSVFLFPPKPKDTLMISRTPEVTCVVVDVSHEDPEVKFNWYVDGVEVHNAKTKPREEQYNSTYRVVSVLTVLHQDWLNGKEYKCKVSNKALPASIEKTISKAKGQPREPQVYTLPPCREEMTKNQVSLWCLVKGFYPSDIAVEWESNGQPENNYKTTPPVLDSDGSFFLYSKLTVDKSRWQQGNVFSCSVMHEALHNHYTQKSLSLSPGK
heavy: EVQLVQSGAEVKKPGSSVKVSCKASGYTITDSNIHWVRQAPGQSLEWIGYIYPYNGGTDYNQKFKNRATLTVDNPTNTAYMELSSLRSEDTAFYYCVNGNPWLAYWGQGTLVTVSSASTKGPSVFPLAPSSKSTSGGTAALGCLVKDYFPEPVTVSWNSGALTSGVHTFPAVLQSSGLYSLSSVVTVPSSSLGTQTYICNVNHKPSNTKVDKRVEPKSCDKTHTCPPCPAPEFEGGPSVFLFPPKPKDTLMISRTPEVTCVVVDVSHEDPEVKFNWYVDGVEVHNAKTKPREEQYNSTYRVVSVLTVLHQDWLNGKEYKCKVSNKALPASIEKTISKAKGQPREPQVCTLPPSREEMTKNQVSLSCAVKGFYPSDIAVEWESNGQPENNYKTTPPVLDSDGSFFLVSKLTVDKSRWQQGNVFSCSVMHEALHNRFTQKSLSLSPGK
light: DIQLTQSPSTLSASVGDRVTITCRASESLDNYGIRFLTWFQQKPGKAPKLLMYAASNQGSGVPSRFSGSGSGTEFTLTISSLQPDDFATYYCQQTKEVPWSFGQGTKVEVKRTVAAPSVFIFPPSDEQLKSGTASVVCLLNNFYPREAKVQWKVDNALQSGNSQESVTEQDSKDSTYSLSSTLTLSKADYEKHKVYACEVTHQGLSSPVTKSFNRGEC
notes: KiH heterodimer
Turning to B3, the “% Positive” value in assay [1] is 99.2%; in assay [2] it was 99.7%. In addition, the gMFI in assay [1] is 69800 gMFI; in assay [2], 149000 gMFI; in assay [3], 11300 gMFI; in assay [4], 15900 gMFI. The “Jurkat WT/KO (Fold)” value in assay [5] came out at 5.3 fold; in assay [6], 7.2 fold.

B4: CD3 × CD33-BspAb65 (bispecific antibody)
chain 1: NFMLTQPHSVSESPGKTVTIACTRSSGSIASNYVQWYQQRPGSSPTTVIYEDNQRPSGVPDRFSGSIDSSSNSASLTISGLKTEDEADYYCQSYDSSNQVFGCGTKLTVLGGGGSGGGGSGGGGSGGGGSQVTLKESGPGILQPSQTLSLTCSFSGFSLSTFGMGVGWIRQPSGKCLEWLAHIWWDDDKYYNPALKSRLTISKDTSKNQVFLKIANVDTADTATYYCARLGYYPYWFFDVWGTGTTVTVSSDKTHTCPPCPAPEFEGGPSVFLFPPKPKDTLMISRTPEVTCVVVDVSHEDPEVKFNWYVDGVEVHNAKTKPREEQYNSTYRVVSVLTVLHQDWLNGKEYKCKVSNKALPASIEKTISKAKGQPREPQVYTLPPCREEMTKNQVSLWCLVKGFYPSDIAVEWESNGQPENNYKTTPPVLDSDGSFFLYSKLTVDKSRWQQGNVFSCSVMHEALHNHYTQKSLSLSPGK
chain 2: EVQLVQSGAEVKKPGSSVKVSCKASGYTITDSNIHWVRQAPGQSLEWIGYIYPYNGGTDYNQKFKNRATLTVDNPTNTAYMELSSLRSEDTAFYYCVNGNPWLAYWGQGTLVTVSSASTKGPSVFPLAPSSKSTSGGTAALGCLVKDYFPEPVTVSWNSGALTSGVHTFPAVLQSSGLYSLSSVVTVPSSSLGTQTYICNVNHKPSNTKVDKRVEPKSCDKTHTCPPCPAPEFEGGPSVFLFPPKPKDTLMISRTPEVTCVVVDVSHEDPEVKFNWYVDGVEVHNAKTKPREEQYNSTYRVVSVLTVLHQDWLNGKEYKCKVSNKALPASIEKTISKAKGQPREPQVCTLPPSREEMTKNQVSLSCAVKGFYPSDIAVEWESNGQPENNYKTTPPVLDSDGSFFLVSKLTVDKSRWQQGNVFSCSVMHEALHNRFTQKSLSLSPGK
chain 3: DIQLTQSPSTLSASVGDRVTITCRASESLDNYGIRFLTWFQQKPGKAPKLLMYAASNQGSGVPSRFSGSGSGTEFTLTISSLQPDDFATYYCQQTKEVPWSFGQGTKVEVKRTVAAPSVFIFPPSDEQLKSGTASVVCLLNNFYPREAKVQWKVDNALQSGNSQESVTEQDSKDSTYSLSSTLTLSKADYEKHKVYACEVTHQGLSSPVTKSFNRGEC
Broadly, the Kd is the constant that tells how readily two partners part at equilibrium. For orientation: koff means a measure of how fast the partners let go of each other. As a reminder, the kon is the rate constant with which the complex forms. Take B4: in the assay with recombinant CD3 proteins, the Kd turned out to be 0.0117 µM, the Response is 0.09, the koff came out at 0.00134 s⁻¹ and the on-rate (kon) turned out to be 114000 M⁻¹ s⁻¹.
